Data on six molecules can be found in patent publication US20240043512A1 (IMCARE BIOTECH, published 2024).

The labels stand for the following.
B1: IM-E2 (antibody, V domains shown)
VH: QSVKESEGGLFKPTDTLTLTCTVSGFSLSAYAISWVRQAPGNGLEWIGAINSGGSAYYANWAKSRSTITRNTNLNTVTLKMTSLTAADTATYFCAREDIYDYGGAFDPWGPGTLVTVST
VL: AYDMTQTPASVEVTVGGTVTIKCQASQGISSYLSWYQQKPGQPPKLLIYAATTLVSGVSSRFKGSGSGTQFTLTISGVECADAATYYCQQDYTTSNVDNTFGGGTEVVVKG
notes: Rabbit monoclonal, Class II
B2: IM-C6 (antibody, V domains shown)
VH: QSVKESEGGLFKPTDALTLTCTVSGFSLSSYAISWVRQAPGSGLEWIGAINTYGGTYYASWAKSRSTITRNTNENTVTLKMTSLTAADTATYFCARDFDSDAYTSASGGMDWGPGTLVTVSS
VL: AYDMTQTPASVEVAVGGTVTIKCQASQSINNYLSWYQQIPGQPPKLLIYRASTLASGVSSRFKGSGSGTQFTLTISGVQCADAATYYCQQGYTSNVDNVFGGGTEVVVKG
notes: Rabbit monoclonal, Class II

The target of the first experiment is IM-CA22. Briefly: competition ELISA: 0.5 µg/mL peptide added to prevent the binding of AS-SPIK with IM-CA22; inhibition rate from OD value with vs without peptide. For orientation: An ELISA detects its analyte on a solid surface through an enzyme-linked reagent.
IM-CA22, sequence (VH, as listed by the source, chain 1 of 2): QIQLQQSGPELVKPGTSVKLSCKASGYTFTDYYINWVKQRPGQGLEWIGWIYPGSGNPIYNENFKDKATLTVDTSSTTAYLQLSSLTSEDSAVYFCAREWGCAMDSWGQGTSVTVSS
IM-CA22, sequence (VL, as listed by the source, chain 2 of 2): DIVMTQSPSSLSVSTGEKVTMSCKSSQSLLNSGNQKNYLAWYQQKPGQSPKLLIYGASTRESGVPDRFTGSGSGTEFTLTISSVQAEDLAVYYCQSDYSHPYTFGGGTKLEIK
The molecule LSLSGNTGA [SPIK8] returned an Inhibition % of 11%. In turn, SLSGNTGADSLGR [SPIK2] returned an Inhibition % of 10%.

Turning to LLSLSGNTGADSL [SPIK3], the Inhibition % was found to be 11%. SGNTGADSLGREA [SPIK1] showed an Inhibition % of 9%.

Another experiment concerns the target T1, Peptide A (entire sequence of AS-SPIK without disulfide bonds) (human, cysteine side-groups inactivated, no disulfide bonds).
T1 construct: Synthesized by BioMatik
T1 peptide: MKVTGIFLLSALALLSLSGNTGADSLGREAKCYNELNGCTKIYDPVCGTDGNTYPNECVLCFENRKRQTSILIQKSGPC
Briefly: ELISA, plate coated with peptide, HRP-labelled antibody. The source says: In order to further support the observation that epitopes specific to AS-SPIK and not NS-SPIK are conformation-dependent, additional tests to evaluate antibody binding to various synthesized peptides was completed. Four peptides, each containing sequences from different regions of AS-SPIK were synthesized by BioMatik (Wilmington DE). Peptide A contains the entire sequence of AS-SPIK, but without the formation of any disulfide bonds via the inactivation of cysteine side-groups. Peptide B contains the sequence of AS-SPIK fragment from M₁-G₅₀, Peptide C contains the sequence of AS-SPIK fragment from D₂₃-G₅₀ and Peptide D contains the sequence of AS-SPIK fragment from N₅₁-C₇₉. The binding activity of our monoclonal antibodies to AS-SPIK and the other peptides was tested by ELISA and results for IM-CA22 are shown in FIG. 6. Similar results were obtained from all other monoclonal anti-AS-SPIK antibodies we have developed, including IM-CA18, IM-CA46, IM-CA77, IM-A1, IM-A6, IM-B10, IM-C6, IM-D3, IM-D5, IM-E2, IM-F5, IM-G6 and IM-G7. Briefly, a 96-well plate was coated with Native AS-SPIK and different peptides, the plate then reacted with anti-AS-SPIK antibody (IM-CA22 herein) labeled with HRP. The OD450 nm was determined after incubating the plate with the substrate, TMB.
As to B1, the binding result was “no binding”. As for B2, the binding result is “no binding”.
